Measured values reported in US20170176432A1 (OSAKA UNIVERSITY, published 2017).
Values belong to the binder of their own block, whether it stands above or below them.

Columns and labels:
[1] = target: T1, human β2-glycoprotein I (β2-GPI) (human, UniProt P02749 20-345); assay: flow cytometry of surface β2-GPI on 293T; HLA-DRB1*15:01
T1 construct: whole, on cells
T1 sequence (looked up): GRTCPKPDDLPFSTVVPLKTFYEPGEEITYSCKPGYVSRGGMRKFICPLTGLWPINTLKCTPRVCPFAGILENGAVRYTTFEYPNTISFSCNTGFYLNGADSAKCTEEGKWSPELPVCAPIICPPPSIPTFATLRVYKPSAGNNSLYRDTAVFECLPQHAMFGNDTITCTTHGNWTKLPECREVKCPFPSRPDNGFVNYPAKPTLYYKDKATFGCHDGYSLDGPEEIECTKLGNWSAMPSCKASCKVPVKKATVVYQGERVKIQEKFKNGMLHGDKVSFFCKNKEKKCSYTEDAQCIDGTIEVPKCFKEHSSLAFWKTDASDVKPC

human thyroglobulin (TG) [2] = target: T2, human thyroglobulin (TG) (human, UniProt P01266 20-2768); assay: flow cytometry of surface TG (anti-histidine antibody) on 293T; HLA-DRB1*15:01
T2 construct: whole, on cells; the tag is not described

[3] = target: T1, human β2-glycoprotein I (β2-GPI); assay: flow cytometry of surface β2-GPI on 293T; HLA-DRB3*02:02
[4] = target: T1, human β2-glycoprotein I (β2-GPI); assay: flow cytometry of surface β2-GPI on 293T; HLA-DRB1*14:06
[5] = target: T1, human β2-glycoprotein I (β2-GPI); assay: flow cytometry of surface β2-GPI on 293T; HLA-DRB4*01:03
human thyroglobulin (TG) [6] = target: T2, human thyroglobulin (TG); assay: flow cytometry of surface TG (anti-histidine antibody) on 293T; HLA-DRB4*01:03

T2 sequence (P01266 20-2768): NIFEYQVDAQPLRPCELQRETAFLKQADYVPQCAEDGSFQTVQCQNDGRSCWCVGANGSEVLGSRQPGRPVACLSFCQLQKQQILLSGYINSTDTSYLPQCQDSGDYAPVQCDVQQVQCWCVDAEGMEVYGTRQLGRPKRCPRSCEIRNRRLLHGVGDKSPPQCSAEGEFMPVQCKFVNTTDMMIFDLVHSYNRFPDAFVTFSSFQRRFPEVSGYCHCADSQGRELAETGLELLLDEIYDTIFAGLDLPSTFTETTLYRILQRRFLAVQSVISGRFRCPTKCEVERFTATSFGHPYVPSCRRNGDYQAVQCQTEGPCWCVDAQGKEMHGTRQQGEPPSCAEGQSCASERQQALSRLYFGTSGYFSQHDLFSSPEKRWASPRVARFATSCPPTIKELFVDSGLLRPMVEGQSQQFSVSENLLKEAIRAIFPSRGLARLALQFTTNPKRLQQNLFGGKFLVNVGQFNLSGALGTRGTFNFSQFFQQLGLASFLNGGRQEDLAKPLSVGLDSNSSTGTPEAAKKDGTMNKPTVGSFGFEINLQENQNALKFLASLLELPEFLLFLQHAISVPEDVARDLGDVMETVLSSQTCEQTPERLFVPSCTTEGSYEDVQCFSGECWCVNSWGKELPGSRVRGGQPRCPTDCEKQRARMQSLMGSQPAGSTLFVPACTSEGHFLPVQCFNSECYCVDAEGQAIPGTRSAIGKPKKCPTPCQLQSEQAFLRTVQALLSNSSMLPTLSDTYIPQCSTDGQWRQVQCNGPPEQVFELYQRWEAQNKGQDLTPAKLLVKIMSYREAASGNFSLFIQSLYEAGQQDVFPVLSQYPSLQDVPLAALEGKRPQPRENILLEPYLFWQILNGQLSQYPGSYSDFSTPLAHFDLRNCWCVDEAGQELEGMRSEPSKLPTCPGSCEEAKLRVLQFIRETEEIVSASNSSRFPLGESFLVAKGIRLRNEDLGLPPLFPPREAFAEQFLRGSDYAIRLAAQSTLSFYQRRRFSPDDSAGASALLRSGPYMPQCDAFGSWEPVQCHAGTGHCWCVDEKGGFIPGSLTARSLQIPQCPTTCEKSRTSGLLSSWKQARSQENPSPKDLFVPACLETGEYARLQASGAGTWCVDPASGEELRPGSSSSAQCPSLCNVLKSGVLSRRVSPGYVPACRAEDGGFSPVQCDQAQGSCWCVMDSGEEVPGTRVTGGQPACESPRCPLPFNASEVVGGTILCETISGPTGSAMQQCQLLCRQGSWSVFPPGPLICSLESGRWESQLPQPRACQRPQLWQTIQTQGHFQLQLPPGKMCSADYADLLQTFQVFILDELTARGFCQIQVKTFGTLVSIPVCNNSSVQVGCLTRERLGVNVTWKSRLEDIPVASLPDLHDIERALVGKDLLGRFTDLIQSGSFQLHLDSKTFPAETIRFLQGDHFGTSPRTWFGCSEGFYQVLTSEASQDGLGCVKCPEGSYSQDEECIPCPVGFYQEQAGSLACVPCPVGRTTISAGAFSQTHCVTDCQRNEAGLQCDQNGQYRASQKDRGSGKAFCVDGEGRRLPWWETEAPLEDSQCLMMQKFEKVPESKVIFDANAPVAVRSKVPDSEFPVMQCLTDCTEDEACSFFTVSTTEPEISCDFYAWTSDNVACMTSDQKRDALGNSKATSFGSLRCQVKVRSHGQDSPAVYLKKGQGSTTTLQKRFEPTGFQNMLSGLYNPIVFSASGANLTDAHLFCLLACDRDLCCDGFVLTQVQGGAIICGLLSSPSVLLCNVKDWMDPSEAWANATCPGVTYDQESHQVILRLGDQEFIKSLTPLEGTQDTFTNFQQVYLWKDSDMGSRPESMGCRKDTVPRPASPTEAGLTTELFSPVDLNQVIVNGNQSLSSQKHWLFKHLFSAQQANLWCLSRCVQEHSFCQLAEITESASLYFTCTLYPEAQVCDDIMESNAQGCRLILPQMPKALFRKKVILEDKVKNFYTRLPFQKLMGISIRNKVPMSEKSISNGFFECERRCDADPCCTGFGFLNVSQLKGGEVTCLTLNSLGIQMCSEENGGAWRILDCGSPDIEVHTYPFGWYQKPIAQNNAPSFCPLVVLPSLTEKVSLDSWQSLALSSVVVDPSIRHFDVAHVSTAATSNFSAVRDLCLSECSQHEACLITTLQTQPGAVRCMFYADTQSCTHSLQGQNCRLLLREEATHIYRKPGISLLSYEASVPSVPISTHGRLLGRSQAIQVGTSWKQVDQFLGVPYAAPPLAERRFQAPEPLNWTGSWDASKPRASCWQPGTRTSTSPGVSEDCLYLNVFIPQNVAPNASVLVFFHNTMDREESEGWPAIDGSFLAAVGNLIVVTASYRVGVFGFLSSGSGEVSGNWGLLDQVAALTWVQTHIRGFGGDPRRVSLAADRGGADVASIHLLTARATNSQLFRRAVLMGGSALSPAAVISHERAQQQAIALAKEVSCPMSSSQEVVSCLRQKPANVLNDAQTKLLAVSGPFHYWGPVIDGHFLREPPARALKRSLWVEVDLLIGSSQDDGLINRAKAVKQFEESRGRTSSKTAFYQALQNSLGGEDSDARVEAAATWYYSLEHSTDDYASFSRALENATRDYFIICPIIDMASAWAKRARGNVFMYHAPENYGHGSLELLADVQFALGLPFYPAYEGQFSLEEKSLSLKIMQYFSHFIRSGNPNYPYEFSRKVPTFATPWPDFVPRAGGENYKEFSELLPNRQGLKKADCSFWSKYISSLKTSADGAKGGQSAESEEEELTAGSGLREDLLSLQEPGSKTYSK

B1: HLA-DR (HLA-DRA*01:01/HLA-DRB1*15:01) (other, human)
MHC II alpha: not shown
MHC II beta: not shown
notes: whole, on cells; also called HLA-DR15
binding result [1]: binds
binding result (human thyroglobulin (TG) [2]): binds

B2: HLA-DR (HLA-DRA*01:01/HLA-DRB3*02:02) (other, human)
MHC II alpha: not shown
MHC II beta: not shown
notes: whole, on cells
binding result [3]: binds

More lines, now with the values ahead:

binding result [4]: binds
B3: HLA-DR (HLA-DRA*01:01/HLA-DRB1*14:06) (other, human)
MHC II alpha: not shown
MHC II beta: not shown
notes: whole, on cells

binding result [5]: binds
binding result (human thyroglobulin (TG) [6]): binds
B4: HLA-DR (HLA-DRA*01:01/HLA-DRB4*01:03) (other, human)
MHC II alpha: not shown
MHC II beta: not shown
notes: whole, on cells; also called HLA-DR53
